Among the data in article PMC7005942 are Kd values, retold here.

Where only a bound is given, the exact number is not on record here.

The target in the series is HIV-1 integrase wild type (HIV-1) (UniProt P12497). The series can be described thus: filter binding. Conditions: Filter binding: 20 mM Tris-HCl pH 7.5, 200 mM NaCl, 6 mM MgCl2, 1 mM DTT, 0.1 mg/mL BSA, room temperature, 10 min.

For the substance HIV-1 TAR (1-57), the Kd is above 5 µM.
